In series [1] the target is TRF1 (hTRF1) (Homo sapiens, UniProt P54274 P54274:2-439). The series is described as follows: EMSA; 13-120 ng TRF1 per 20 ul, 1 ng probe, 20 mM Hepes-KOH pH 7.9, 100 mM KCl, 100 ng sheared E. coli DNA, room temperature; slight nonspecific stimulation by tankyrase without NAD+. Conditions: tags: baculovirus-derived (Bianchi et al. 1997); chain copies: 2 (homodimer, stated; several dimers per probe at high concentration); label: end-labeled. How it is done: Biol. 12:4834 (1992)] containing 12 tandem TTAGGG repeats. Baculovirus-derived TRF1 (13 to 120 ng) [Bianchi et al. EMBO J. 16:1785 (1997)] was incubated for 30 minutes at room temperature in a 20 μl reaction containing 20 mM Hepes-KOH (pH 7.9), 100 mM KCL, 0.5 mM DTT, 5% glycerol, 0.1% NP40, 100 ng sheared E. coli DNA, 100 ng β-casein, and 1 ng of labeled probe. In some cases, reactions were supplemented with NAD⁺ (0.2 mM) and baculovirus-derived human tankyrase (2.5 to 200 ng). Samples were fractionated on a 0.7% agarose gel run in 0.1× TBE (8.9 mM Tris-base, 8.9 mM Boric acid, and 0.2 mM EDTA) at 130 volts for 1 hour at room temperature. Gels were dried onto Whatman DE81 paper and autoradiographed.

Series [2] concerns the target T1, human full length TRF1 fused to LexA (LexA-TRF1) (human, UniProt P0A7C2 1-202; P54274 2-439).
T1 construct: The construct comes from Bianchi et al. 1997; also called LexA-FL
T1 sequence (looked up): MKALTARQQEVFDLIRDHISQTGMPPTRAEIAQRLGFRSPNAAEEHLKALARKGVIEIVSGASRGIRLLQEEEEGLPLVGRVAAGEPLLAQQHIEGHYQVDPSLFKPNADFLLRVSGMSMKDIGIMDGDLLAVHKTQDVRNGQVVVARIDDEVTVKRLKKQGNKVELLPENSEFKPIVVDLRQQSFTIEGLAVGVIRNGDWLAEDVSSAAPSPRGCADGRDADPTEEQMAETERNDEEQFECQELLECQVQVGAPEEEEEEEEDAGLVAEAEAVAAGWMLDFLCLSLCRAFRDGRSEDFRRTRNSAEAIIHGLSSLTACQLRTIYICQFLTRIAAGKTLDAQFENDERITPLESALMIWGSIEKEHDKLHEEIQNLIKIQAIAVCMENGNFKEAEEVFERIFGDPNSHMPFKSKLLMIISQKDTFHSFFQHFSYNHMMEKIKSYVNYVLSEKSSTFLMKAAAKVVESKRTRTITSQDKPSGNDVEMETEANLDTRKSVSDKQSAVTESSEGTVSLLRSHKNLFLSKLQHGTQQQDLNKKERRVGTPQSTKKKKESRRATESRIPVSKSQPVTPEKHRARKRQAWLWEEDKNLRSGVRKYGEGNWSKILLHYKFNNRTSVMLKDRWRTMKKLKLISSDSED
The series can be described thus: yeast two-hybrid, β-galactosidase; GAD without tankyrase sequences. How it is done:
TR1L-4 and TR1L-12 were isolated from a human liver two-hybrid cDNA library (Clontech) created in pGad10. The library was screened with human full length TRF1 cDNA fused to LexA (LexA-TRF1) [Bianchi et al., EMBO J., 16:1785-1794 (1997)] in the yeast strain L40 as described [Hollenberg et al., Mol. Cell Biol., 15:3813-3822 (1995)]. Two-hybrid analysis was performed as described by Bianchi et al. [EMBO J., 16:1785-1794 (1997)]. β-galactosidase assays for the two-hybrid analysis was performed as described by Bianchi et al. [EMBO J., 16:1785-1794 (1997)].
Two-hybrid analysis was used to determine the interacting domains between tankyrase and TRF1. […] To determine the tankyrase-interacting domain in TRF1, two-hybrid analysis was performed with the 10-ANK repeat domain of TR1L-12 fused to the GAL4 activation domain (GAD-tankyrase) and full-length and deletion constructs of TRF1 fused to LexA. […] As observed previously, the amino-terminal acidic domain of TFR1 (LexAd68-C) activated transcription even in the absence of tankyrase sequences in the GAD fusion partner. […] Deletion of the acidic domain of TRF1 (ΔN66-LexA) abolished the interaction with GAD-tankyrase.

B1: [TTAGGG]12 duplex, 142 bp HindIII-Asp718 fragment of pTH12 (dsDNA)
DNA 1: TTAGGGTTAGGGTTAGGGTTAGGGTTAGGGTTAGGGTTAGGGTTAGGGTTAGGGTTAGGGTTAGGGTTAGGG
DNA 2: CCCTAACCCTAACCCTAACCCTAACCCTAACCCTAACCCTAACCCTAACCCTAACCCTAACCCTAACCCTAA
As to B1, the binding result in series [1] is given as “binds”.

B2: GAL4 activation domain (GAD) (alone) (other, UniProt P04386 768-881, looked up)
chain: ANFNQSGNIADSSLSFTFTNSSNGPNLITTQTNSQALSQPIASSNVHDNFMNNEITASKIDDGNNSKPLSPGWTDQTAYNAFGITTGMFNTTTMDDVYNYLFDDEDTPPNPKKE
notes: Control
Consider B2, for which the binding result in series [2] is listed as “no binding”.

The record behind these values is patent publication US20020076795A1, “Novel TRF1 binding protein, methods of use thereof” (published 2002).
